Results from patent US20230295310A1 (ABCELLERA BIOLOGICS, published 2023).
Residue numbers refer to the chain shown, from its start.

B1: mAb 78 (antibody, V domains shown)
VH: EVQLVESGGGLVQPGGSLRLSCAASGFTFSSYWMSWVRQAPGKGLEWVANIKQDGSEKYYVDSVKGRFTISRDNAKNSLYLQMNSLRAEDTAVYYCARDNSPSFYWYFDLWGRGTLVTVSS
VL: DIQMTQSPSTLSASVGDRVTITCRASQSLSRWLAWYQQKPGKAPKLLIYKASSLESGVPSRFSGSGSGTEFTLTISSLQPDDFATYYCQQYYTYSRTFGQGTKVEIK
B2: mAb 69 (antibody, V domains shown)
VH: QMLLVESGGGVVQPGRSLTLSCAASGFTFRSYGMHWVRQAPGRGLEWVAIIWYDGSTEYYADSVKGRFTISRANSKNMLYLQMNSLRAEDTAVYYCAAFDYTNSFDIWGQGTMVTVSS
VL: DIVVTQTPLSSPVTLGQPASISCRSSQRFVHSDGNTYLSWLQQRPGQPPRLLIYKISNRISGVPDRFSGSGAGTDFKLKISRVEAEDVGIYYCMQATQFPYTFGQGTKLEIK
B3: mAb 70 (antibody, V domains shown)
VH: QGQLVESGGGVVQPGRSLRLSCEASGFTFRSYGMHWVRQPPGKGLEWVAIIWYDGGKKYYGDSVKGRFTISRDNPKNTLYLQMNSLRPEDTAVYYCMAYDYSNGFDIWGQGTMVTVSS
VL: B2 VL with V4M, R28S, N35S, I60F, S70R, K77T, A96N
B4: mAb 158 (antibody, V domains shown)
VH: EVQLVESGGGLVQPGRSLRLSCAASGFTFADYTMHWVRQVPGKGLEWVSGISWNSGSVDYADSVKGRFTISRDNAKKTLYLQMNSLRAEDTALYYCAKDSSGYGHYYFYYLDVWGKGTTVTVSS
VL: EIVMTQSPATLSVSPGERATLSCRATQSVSSNLAWYQQKPGQAPRLLIYSTSTRATGIPARFSGSRSGTEFTLTISSLQSEDSAVYYCQQYNNWPHFGQGTRLEIK
B5: mAb 121 (antibody, V domains shown)
VH: B4 VH with A24T, V40A, V58I, T78S, Y95F
VL: B4 VL with A9G, E17K, T26S, A43G, R66G, Q90H
B6: mAb 153 (antibody, V domains shown)
VH: QVQLVESGGGVVQPGRSLRLSCAASGFTFSTYGMHWVRQAPGKGLEWVAVIWYDGSHKYYSDSVKGRFTISRDNSKNTLYLQMNSLRVEDTAIYYCARTGITGTTAYFYFDSWGQGTLVTVSS
VL: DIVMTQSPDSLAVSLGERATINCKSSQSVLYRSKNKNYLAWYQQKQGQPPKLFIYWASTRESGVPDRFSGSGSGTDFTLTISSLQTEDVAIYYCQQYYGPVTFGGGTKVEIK
B7: mAb 180 (antibody, V domains shown)
VH: EVNLVESGGGLVQPGRSLRLSCAASGFTFDDYTMHWVRQVPGKGLEWVSNISWNSGSLGYADSVKGRFTISRDNAKDSLYLQMNSLRVEDTALYYCAKDSSGYGHYNSYYMDVWGKGTTVTVSS
VL: DIQMTQSPSSLSASVGDRVTITCRASQSIRNYLNWYQQKPGKAPKVLIYSASSLQSGVPSRFSGSGSGTDFTLTISSLQPEDFASFYCQQTYSTPITFGQGTRLEIK
notes: VH/VL only
B8: mAb 171 (antibody, V domains shown)
VH: B4 VH with V40A, K43Q, V58I, T69I
VL: B4 VL with T26S
notes: VH/VL only
B9: mAb 318 (antibody, V domains shown)
VH: EGQLLESGGGLVQPGGSLRLSCAASGFTFSRYAMSWIRQAPGKGLEWVSVIDGSGGDKNYADSVKGRFTISRDNSKNSLYLLMNGLRVEDTAIYFCAKKFSYYYYYMDVWGKGTSVTVSS
VL: SYELTQPLSVSVALGQTARITCGGNNIGGKDVHWYQQKPGQAPVLVIYRDSNRPSGIPERFSGSNSGNTATLTISRAQAGDEADYYCQVWDSRTAVFGGGTQLTAL
notes: VH and VL only
B10: mAb 294 (antibody, V domains shown)
VH: EVQLLESGGGLVQPGGSLRLSCAASGFTFSSSVMSWVRQGPGKGLEWVSAIRGSGVYTYYADSVKGRFTISRDNSKNTLYLQMNSLRAEDTAVYYCAKKYSYYYYYMDVWGKGTTVTVSS
VL: B9 VL with S1P, G29S, R93S
notes: VH and VL only
B11: mAb 312 (antibody, V domains shown)
VH: B9 VH with D52N
VL: B9 VL with G29S, D31N, Y35H, D50E, E59G, I74S, R93S
notes: VH and VL only
B12: mAb 319 (antibody, V domains shown)
VH: EVQLLESGGGLLQPGGSRRLSCAATEFTFRSYAMSWVRQSPGKGLEWVSVISGRGDNTYYADSVKGRFTISRDNSKNTLYLQMNSLRAEDTAVYYCAKMYSYYYYYMDVWGKGTTVTVSS
VL: B9 VL with G29S, D31N, Y35H, D50E, I74S, R93S
notes: VH and VL only
B13: mAb 311 (antibody, V domains shown)
VH: B12 VH with L12V, T25S, E26G, R30S, S40A, S52N, G53T, N57I, Y59S, M99K
VL: B9 VL with G29S, D31N, Y35H, D50E, I74S, R93S
notes: VH and VL only
B14: mAb 324 (antibody, V domains shown)
VH: QVQVVQSGAEVKKPGASVKVSCKTSGYTFTDYYIHWVRQAPGQGLEWMGWIYPKSGRTDNAQNFKGRVAMTRDTSINTAYLELNRLRSDDTAIYYCARLEELVFDYWGQGTLVTVSS
VL: DIQMTQSPSSVSASVGDRVTITCRASQVISRWLAWYQLKPGKAPKLLIYEASSLQSWVPSRFSGSGSGTDFTLTISSLQPEDFATYYCQQANSFPWTFGQGTKVEIK
B15: mAb 325 (antibody, V domains shown)
VH: B14 VH with Y32Q, N63K, L81M, N84S, R85S, I93T
VL: not shown
B16: mAb 310 (antibody, V domains shown)
VH: QVQLVESGGGVVQPGRSLRLSCAASGFTFRSYGMHWVRQAPGKGLEWVTIIWYDGSKKYYADSVRGRFTISRDNSKNMLYLQMNSLRAEDTAVYYCASQEFNWNDGGFYYMDVWGKGTTVTVSS
VL: DIQLTQSPSFLSASVGDRVTITCRASQDISSYLHWCQQKPGKAPKLLIYGASTLQSGVPSRFSGSGSGKEFTLTISSLQPEDFATYYCQQLDNYPPTFGGGTKVEIK
notes: VH and VL only
B17: mAb 323 (antibody, V domains shown)
VH: QVQVVQSGAEVKNPGASVKVSCKASGYTFTGYYMHWVRQAPGQGLEWMGWIYPNSGRTNYAQKFQGRVTMTRDTSISTAYMELSRLRSDDTAVYYCARLEQLVFDYWGQGTLVTVSS
VL: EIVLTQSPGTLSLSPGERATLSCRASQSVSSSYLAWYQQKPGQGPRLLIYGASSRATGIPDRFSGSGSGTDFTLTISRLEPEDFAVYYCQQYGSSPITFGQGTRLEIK
notes: VH and VL only

Each binder was assayed against T1, cynomolgus monkey CD3 expressed on primary T cells (cynomolgus monkey, UniProt Q95LI5 22-198; Q95LI8 22-171; Q95LI7 23-181) (assay: flow cytometry, 25 nM).
T1 construct: whole, on cells; CD3 complex on purified cynomolgus monkey T cells; also called cyno CD3
Summary of the method: (§1)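 Binding reported as fold over isotype: median fluorescence intensity divided by isotype control, with ≥10 scored positive. Cells were exposed to 25 nM antibody in PBS/2% FBS, 30 min, 4 °C, before flow cytometric read-out.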

T1 sequence (Q95LI5 22-198, chain 1 of 3): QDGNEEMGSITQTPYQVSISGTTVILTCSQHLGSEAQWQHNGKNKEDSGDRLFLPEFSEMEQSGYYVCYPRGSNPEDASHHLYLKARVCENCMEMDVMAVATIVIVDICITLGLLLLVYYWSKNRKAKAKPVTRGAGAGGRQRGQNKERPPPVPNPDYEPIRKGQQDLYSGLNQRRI
T1 sequence (Q95LI8 22-171, chain 2 of 3): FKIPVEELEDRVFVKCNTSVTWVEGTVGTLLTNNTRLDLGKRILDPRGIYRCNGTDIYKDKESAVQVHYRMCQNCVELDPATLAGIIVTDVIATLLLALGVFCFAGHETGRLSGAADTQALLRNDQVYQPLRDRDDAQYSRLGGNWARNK
T1 sequence (Q95LI7 23-181, chain 3 of 3): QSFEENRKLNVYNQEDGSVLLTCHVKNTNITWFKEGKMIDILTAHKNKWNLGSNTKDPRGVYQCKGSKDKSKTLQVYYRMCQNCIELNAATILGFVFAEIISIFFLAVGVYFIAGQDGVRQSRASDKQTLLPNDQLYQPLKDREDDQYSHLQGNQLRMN

Row | Cyno primary T Cell Binding (FOI) | Binder
1 | 41.6 FOI | B1
2 | 245 FOI | B2
3 | 238 FOI | B3
4 | 10.9 FOI | B4
5 | 12.2 FOI | B5
6 | 26.1 FOI | B6

What follows are binders tested against T2, human CD3 expressed on cells (human, UniProt P07766 23-207; P04234 22-171; P09693 23-182) (assay: flow cytometry, 25 nM).
T2 construct: whole, on cells; CD3 complex on Jurkat cells and on human primary T cells
Summary of the method: as §1

T2 sequence (P07766 23-207, chain 1 of 3): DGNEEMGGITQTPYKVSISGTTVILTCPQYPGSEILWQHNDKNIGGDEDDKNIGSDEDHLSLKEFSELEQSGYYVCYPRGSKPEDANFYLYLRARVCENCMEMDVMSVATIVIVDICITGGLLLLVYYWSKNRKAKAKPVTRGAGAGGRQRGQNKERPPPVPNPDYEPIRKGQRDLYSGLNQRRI
T2 sequence (P04234 22-171, chain 2 of 3): as the sequence (Q95LI8 22-171, chain 2 of 3) above, with V5I, K15N, V20I, T32S, N33D, N34I, A64T, N74S, L83V, R141H counted along it
T2 sequence (P09693 23-182, chain 3 of 3): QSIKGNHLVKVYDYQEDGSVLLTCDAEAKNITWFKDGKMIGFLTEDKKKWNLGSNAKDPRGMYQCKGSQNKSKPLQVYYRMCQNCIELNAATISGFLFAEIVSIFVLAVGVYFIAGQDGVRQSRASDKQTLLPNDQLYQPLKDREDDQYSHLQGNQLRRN

Row | Human primary T Cell Binding (FOI) | Jurkat Cell Binding (FOI) | Binder
7 | 116 FOI | 104 FOI | B1
8 | 123 FOI | 145 FOI | B2
9 | 131 FOI | 140 FOI | B3
10 | 164 FOI | 117 FOI | B4
11 | 101 FOI | 101 FOI | B5
12 | 262 FOI | 98.5 FOI | B6

These binders were tested against T3, cynomolgus monkey CD3 expressed on cyno primary T cells (cynomolgus monkey, UniProt Q95LI5 22-198; Q95LI8 22-171; Q95LI7 23-181) (assay: flow cytometry, 25 nM, cyno primary T cells).
T3 construct: whole, on cells; CD3 complex on purified cynomolgus monkey CD3 pan T cells; also called cyno CD3
Summary of the method: as §1

T3 sequence (Q95LI5 22-198, chain 1 of 3): as the sequence (Q95LI5 22-198, chain 1 of 3) above
T3 sequence (Q95LI8 22-171, chain 2 of 3): as the sequence (Q95LI8 22-171, chain 2 of 3) above
T3 sequence (Q95LI7 23-181, chain 3 of 3): as the sequence (Q95LI7 23-181, chain 3 of 3) above

Row | Binding (FOI) | Binder
13 | 90.2 FOI | B7
14 | 20.1 FOI | B8

These binders were tested against T4, human CD3 expressed on cells (Jurkat cells; human primary T cells) (human, UniProt P07766 23-207; P04234 22-171; P09693 23-182) (assay: flow cytometry, 25 nM, Jurkat cells).
T4 construct: whole, on cells
Summary of the method: as §1

T4 sequence (P07766 23-207, chain 1 of 3): as the sequence (P07766 23-207, chain 1 of 3) above
T4 sequence (P04234 22-171, chain 2 of 3): as the sequence (Q95LI8 22-171, chain 2 of 3) above, with V5I, K15N, V20I, T32S, N33D, N34I, A64T, N74S, L83V, R141H counted along it
T4 sequence (P09693 23-182, chain 3 of 3): as the sequence (P09693 23-182, chain 3 of 3) above

Row | Binding (FOI) | Binder
15 | 108 FOI | B8

What follows are binders tested against T5, human CD3 (human, UniProt P07766 23-207; P04234 22-171; P09693 23-182) (assay: flow cytometry, Jurkat cells, 25 nM antibody).
T5 construct: whole, on cells; also called CD3 on Jurkat cells; CD3 on human primary T cells
Description: (§2) Purified antibodies were confirmed to bind CD3 expressed on cells using the CytoFLEX S or LX flow cytometers (Beckman Coulter). Antibodies were diluted to 25 nM in FACS buffer (PBS+2% FBS) and were incubated with CD3-expressing cells for 30 minutes at 4° C. […] The median fluorescence intensity of the binding signal for each antibody was normalized to the isotype control to obtain a fold over isotype value. An antibody with a fold over isotype (FOI) of ≥10 was considered to be positive for binding.

T5 sequence (P07766 23-207, chain 1 of 3): as the sequence (P07766 23-207, chain 1 of 3) above
T5 sequence (P04234 22-171, chain 2 of 3): as the sequence (Q95LI8 22-171, chain 2 of 3) above, with V5I, K15N, V20I, T32S, N33D, N34I, A64T, N74S, L83V, R141H counted along it
T5 sequence (P09693 23-182, chain 3 of 3): as the sequence (P09693 23-182, chain 3 of 3) above

Row | Jurkat Cell Binding (FOI) | Binder
16 | 211 FOI | B9

Each binder was assayed against T5, human CD3 (assay: flow cytometry, human primary T cells, 25 nM antibody).
Description: as §2

Row | Human primary T Cell Binding (FOI) | Binder
17 | 211 FOI | B9

The binders below were run against T5, human CD3 (assay: flow cytometry, Jurkat cells).
Description: as §2

Row | Binder | binding result
18 | B10 | no binding (tested: FOI ≥10 = positive; 25 nM)
19 | B11 | no binding (tested: FOI ≥10 = positive; 25 nM)
20 | B12 | no binding (tested: FOI ≥10 = positive; 25 nM)
21 | B13 | no binding (tested: FOI ≥10 = positive; 25 nM)
22 | B14 | no binding (tested: FOI ≥10 = positive; 25 nM)
23 | B15 | no binding (tested: FOI ≥10 = positive; 25 nM)
24 | B16 | no binding (tested: FOI ≥10 = positive; 25 nM)
25 | B17 | no binding (tested: FOI ≥10 = positive; 25 nM)

These binders were tested against T6, cynomolgus monkey CD3 (cynomolgus monkey, UniProt Q95LI5 22-198; Q95LI8 22-171; Q95LI7 23-181) (assay: flow cytometry, cyno primary T cells).
T6 construct: whole, on cells; CD3 on purified cynomolgus monkey CD3 pan T cells; also called cyno CD3; CD3 on cyno primary T cells
Summary of the method: as §1

T6 sequence (Q95LI5 22-198, chain 1 of 3): as the sequence (Q95LI5 22-198, chain 1 of 3) above
T6 sequence (Q95LI8 22-171, chain 2 of 3): as the sequence (Q95LI8 22-171, chain 2 of 3) above
T6 sequence (Q95LI7 23-181, chain 3 of 3): as the sequence (Q95LI7 23-181, chain 3 of 3) above

Row | Binder | binding result
26 | B10 | no binding (tested: FOI ≥10 = positive; 25 nM)
27 | B11 | no binding (tested: FOI ≥10 = positive; 25 nM)
28 | B12 | no binding (tested: FOI ≥10 = positive; 25 nM)
29 | B13 | no binding (tested: FOI ≥10 = positive; 25 nM)
30 | B9 | no binding (tested: FOI ≥10 = positive; 25 nM)
31 | B14 | no binding (tested: FOI ≥10 = positive; 25 nM)
32 | B15 | no binding (tested: FOI ≥10 = positive; 25 nM)
33 | B16 | no binding (tested: FOI ≥10 = positive; 25 nM)
34 | B17 | no binding (tested: FOI ≥10 = positive; 25 nM)

These binders were tested against T4, human CD3 expressed on cells (Jurkat …) (assay: flow cytometry, 25 nM, human primary T cells).
Summary of the method: as §1

Row | Binding (FOI) | Binder
35 | 165 FOI | B8
